B3: CRBN-Nanoluciferase (NLuc) (other, not shown: large carriers)
chain: MAGEGDQQDAAHNMGNHLPLLPAESEEEDEMEVEDQDSKEAKKPNIINFDTSLPTSHTYLGADMEEFHGRTLHDDDSCQVIPVLPQVMMILIPGQTLPLQLFHPQEVSMVRNLIQKDRTFAVLAYSNVQEREAQFGTTAEIYAYREEQDFGIEIVKVKAIGRQRFKVLELRTQSDGIQQAKVQILPECVLPSTMSAVQLESLNKCQIFPSKPVSREDQCSYKWWQKYQKRKFHCANLTSWPRWLYSLYDAETLMDRIKKQLREWDENLKDDSLPSNPIDFSYRVAACLPIDDVLRIQLLKIGSAIQRLRCELDIMNKCTSLCCKQCQETEITTKNEIFSLSLCGPMAAYVNPHGYVHETLTVYKACNLNLIGRPSTEHSWFPGYAWTVAQCKICASHIGWKFTATKKDMSPQKFWGLTRSALLPTIPDTEDEISPDKVILCL
notes: Expressed inside transfected 293T cells for NanoBRET (intracellular, not on the surface); also called wild-type CRBN; wtCRBN

Assays:
[1] = molecular target: IKZF3 degron-eGFP fusion (IKZF3 degron-GFP-IRES-mCherry reporter) (Homo sapiens, UniProt A2VDW9 130-189 (bovine entry)); assay: cell-based or functional assay
IKZF3 degron-eGFP fusion (IKZF3 degron-GFP-IRES-mCherry reporter), sequence (A2VDW9 130-189): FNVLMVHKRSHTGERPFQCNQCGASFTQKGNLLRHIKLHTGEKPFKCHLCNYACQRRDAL

CD28-IKZF3 (eGFP fusion) = assay: cell-based or functional assay
[2] = molecular target: CD28-CD3z-IKZF3 (eGFP fusion); assay: cell-based or functional assay
[3] = molecular target: B3; assay: NanoBRET across a range of pomalidomide concentrations
Procedure: (§1) Cells were then trypsinized and seeded into 96 well plates, at 40,000 cells per well. The BRET assay was performed per manufacturer's instructions (Promega™). In brief, cells were incubated for 2 hours with varying concentrations of Pomalidomide or DMSO, 10 μM MG132, and 100 nM HaloTag NanoBRET 618 Ligand. NanoBRET Nano-Glo substrate was added and donor (460 nm) and acceptor (618 nm) emission were measured within 10 minutes (EnVision, Perkin Elmer). Mean corrected milliBRET units (mBU) was calculated.

IKZF3aa130-189-HaloTag = molecular target: T1, IKZF3aa130-189-HaloTag (Homo sapiens, UniProt A2VDW9 130-189 (bovine entry)); assay: NanoBRET in 293T-CRBNΔe5 cells, pomalidomide dose-response; the Kd is a pomalidomide concentration
T1 construct: Expressed in transfected 293T cells for NanoBRET; labelled with HaloTag NanoBRET 618 ligand; also called IKZF3 degron; degron
T1 sequence (A2VDW9 130-189): as above
Procedure: as §1

B1: CRBN (wild-type; endogenous in Jurkat/293T cells or re-expressed in 293T-CRBNΔe5 cells) (other)
chain: MAGEGDQQDAAHNMGNHLPLLPAESEEEDEMEVEDQDSKEAKKPNIINFDTSLPTSHTYLGADMEEFHGRTLHDDDSCQVIPVLPQVMMILIPGQTLPLQLFHPQEVSMVRNLIQKDRTFAVLAYSNVQEREAQFGTTAEIYAYREEQDFGIEIVKVKAIGRQRFKVLELRTQSDGIQQAKVQILPECVLPSTMSAVQLESLNKCQIFPSKPVSREDQCSYKWWQKYQKRKFHCANLTSWPRWLYSLYDAETLMDRIKKQLREWDENLKDDSLPSNPIDFSYRVAACLPIDDVLRIQLLKIGSAIQRLRCELDIMNKCTSLCCKQCQETEITTKNEIFSLSLCGPMAAYVNPHGYVHETLTVYKACNLNLIGRPSTEHSWFPGYAWTVAQCKICASHIGWKFTATKKDMSPQKFWGLTRSALLPTIPDTEDEISPDKVILCL
B1 was tested, and the “EC50 of pomalidomide-dependent degradation (eGFP/mCherry ratio normalized to DMSO), Jurkat T cells” value [1] was 0.42 nM, the “EC50 of pomalidomide-dependent degradation (eGFP/mCherry ratio normalized to DMSO), Jurkat T cells” value (CD28-IKZF3 (eGFP fusion)) was 23.5 nM and the “EC50 of pomalidomide-dependent degradation (eGFP/mCherry ratio normalized to DMSO), Jurkat T cells” value [2] was 8.2 nM.

B2: IKZF3 degron polypeptide, amino acids 130-189 A153M (HaloTag fusion for BRET) (other, not shown: large carriers)
chain: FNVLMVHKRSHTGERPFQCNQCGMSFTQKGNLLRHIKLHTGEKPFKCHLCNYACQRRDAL
notes: also called IKZF3 A153M; A153M-substituted form of the IKZF3 degron
B2: binds [3].

In the case of B3, the “apparent Kd (pomalidomide-dependent dimerization)” value (IKZF3aa130-189-HaloTag) is reported as 30 nM.

B4: minCRBN3-NLuc (other, not shown: large carriers)
chain: AGEGDQQDAAHNMGNHLPLLPESEEEDEMEVEDQDSKEAKKPNIINFDTSLPTSHTYLGADMEEFHGRTLHDDDSCQVIPVLPQVMMILIPGQTLPLQLFHPQEVSMVRNLIQKDRTFAVLAYSNVQEREAQFGTTAEIYAYREEQDFGIEIVKVKAIGRQRFKVLELRTQSDGIQQAKVQILPECVLPSTYDAETLMDRIKKQLREWDENLKDDSLPSNPIDFSYRVAACLPIDDVLRIQLLKIGSAIQRLRCELDIMNKCTSLCCKQCQETEITTKNEIFSLSLCGPMAAYVNPHGYVHETLTVYKACNLNLIGRPSTEHSWFPGYAWTVAQCKICASHIGWKFTATKKDMSPQKFWGLTRSALLPTIPDTEDEISPDKVILCL
notes: also called CRBNΔ3; cytosolic (untethered) minCRBN
In the case of B4, the “apparent Kd (pomalidomide-dependent dimerization)” value (IKZF3aa130-189-HaloTag) is reported as 30 nM.

Reference: patent publication US20250074957A1 (GENERAL HOSPITAL, published 2025)
